Assay results as given in patent US20180094059A1 (published 2018).
Positions count from the first letter of the chain named.

B1: Db8-Glyco-scTRAIL3-FAVSGAA (other)
chain: LEASDYKDDDDKGAEVQLVESGGGLVQPGGSLRLSCAASGFSLTNYGVHWVRQAPGKGLEWLGVIWSGGNTDYNTPFTSRFTISRDNSKNTLYLQMNSLRAEDTAVYYCARALTYYDYEFAYWGQGTTVTVSSGGGGSGGGDIQLTQSPSFLSASVGDRVTITCRASQSIGTNIHWYQQKPGKAPKLLIKYASESISGVPSRFSGSGSGTEFTLTISSLQPEDFATYYCQQNNNWPTTFGAGTKLEIKRAAAGNGTSNGTSEFGGAAAHITGTRGRSNTLSSPNSKNEKALGRKINSWESSRSGHSFLSNLHLRNGELVIHEKGFYYIYSQTYFRFQEEIKENTKNDKQMVQYIYKYTSYPDPILLMKSARNSCWSKDAEYGLYSIYQGGIFELKENDRIFVSVTNEHLIDMDHEASFFGAFAVSGAAAHITGTRGRSNTLSSPNSKNEKALGRKINSWESSRSGHSFLSNLHLRNGELVIHEKGFYYIYSQTYFRFQEEIKENTKNDKQMVQYIYKYTSYPDPILLMKSARNSCWSKDAEYGLYSIYQGGIFELKENDRIFVSVTNEHLIDMDHEASFFGAFAVSGAAAHITGTRGRSNTLSSPNSKNEKALGRKINSWESSRSGHSFLSNLHLRNGELVIHEKGFYYIYSQTYFRFQEEIKENTKNDKQMVQYIYKYTSYPDPILLMKSARNSCWSKDAEYGLYSIYQGGIFELKENDRIFVSVTNEHLIDMDHEASFFGAFAVS
modifications: glycosylated connecting peptide
B2: Db-Glyco-scTRAIL3-FAVSGAA (other)
chain: LEASDYKDDDDKGAEVQLVESGGGLVQPGGSLRLSCAASGFSLTNYGVHWVRQAPGKGLEWLGVIWSGGNTDYNTPFTSRFTISRDNSKNTLYLQMNSLRAEDTAVYYCARALTYYDYEFAYWGQGTTVTVSSGGGGSDIQLTQSPSFLSASVGDRVTITCRASQSIGTNIHWYQQKPGKAPKLLIKYASESISGVPSRFSGSGSGTEFTLTISSLQPEDFATYYCQQNNNWPTTFGAGTKLEIKRAAAGNGTSNGTSEFGGAAAHITGTRGRSNTLSSPNSKNEKALGRKINSWESSRSGHSFLSNLHLRNGELVIHEKGFYYIYSQTYFRFQEEIKENTKNDKQMVQYIYKYTSYPDPILLMKSARNSCWSKDAEYGLYSIYQGGIFELKENDRIFVSVTNEHLIDMDHEASFFGAFAVSGAAAHITGTRGRSNTLSSPNSKNEKALGRKINSWESSRSGHSFLSNLHLRNGELVIHEKGFYYIYSQTYFRFQEEIKENTKNDKQMVQYIYKYTSYPDPILLMKSARNSCWSKDAEYGLYSIYQGGIFELKENDRIFVSVTNEHLIDMDHEASFFGAFAVSGAAAHITGTRGRSNTLSSPNSKNEKALGRKINSWESSRSGHSFLSNLHLRNGELVIHEKGFYYIYSQTYFRFQEEIKENTKNDKQMVQYIYKYTSYPDPILLMKSARNSCWSKDAEYGLYSIYQGGIFELKENDRIFVSVTNEHLIDMDHEASFFGAFAVS
modifications: two N-glycosylation sites in the peptide AAAGNGTSNGTSEFGG, shown to be glycosylated
B3: Db-Glyco-scTRAIL3-FAVSGIA (other)
chain: B2 chain with A263I, A424I, A585I
modifications: glycosylated connecting peptide
B4: Db10-Glyco-scTRAIL3-FAVSGAA (other)
chain: LEASDYKDDDDKGAEVQLVESGGGLVQPGGSLRLSCAASGFSLTNYGVHWVRQAPGKGLEWLGVIWSGGNTDYNTPFTSRFTISRDNSKNTLYLQMNSLRAEDTAVYYCARALTYYDYEFAYWGQGTTVTVSSGGGGSGGGGSDIQLTQSPSFLSASVGDRVTITCRASQSIGTNIHWYQQKPGKAPKLLIKYASESISGVPSRFSGSGSGTEFTLTISSLQPEDFATYYCQQNNNWPTTFGAGTKLEIKRAAAGNGTSNGTSEFGGAAAHITGTRGRSNTLSSPNSKNEKALGRKINSWESSRSGHSFLSNLHLRNGELVIHEKGFYYIYSQTYFRFQEEIKENTKNDKQMVQYIYKYTSYPDPILLMKSARNSCWSKDAEYGLYSIYQGGIFELKENDRIFVSVTNEHLIDMDHEASFFGAFAVSGAAAHITGTRGRSNTLSSPNSKNEKALGRKINSWESSRSGHSFLSNLHLRNGELVIHEKGFYYIYSQTYFRFQEEIKENTKNDKQMVQYIYKYTSYPDPILLMKSARNSCWSKDAEYGLYSIYQGGIFELKENDRIFVSVTNEHLIDMDHEASFFGAFAVSGAAAHITGTRGRSNTLSSPNSKNEKALGRKINSWESSRSGHSFLSNLHLRNGELVIHEKGFYYIYSQTYFRFQEEIKENTKNDKQMVQYIYKYTSYPDPILLMKSARNSCWSKDAEYGLYSIYQGGIFELKENDRIFVSVTNEHLIDMDHEASFFGAFAVS
modifications: glycosylated connecting peptide
B5: Db-Glyco-scTRAIL-95L8 (other)
chain: TSEETISTVQEKQQNISPLVRERGPQRVAAHITGTRGRSNTLSSPNSKNEKALGRKINSWESSRSGHSFLSNLHLRNGELVIHEKGFYYIYSQTYFRFQEEIKENTKNDKQMVQYIYKYTSYPDPILLMKSARNSCWSKDAEYGLYSIYQGGIFELKENDRIFVSVTNEHLIDMDHEASFFGAFLVGGGGSGGGSTSEETISTVQEKQQNISPLVRERGPQRVAAHITGTRGRSNTLSSPNSKNEKALGRKINSWESSRSGHSFLSNLHLRNGELVIHEKGFYYIYSQTYFRFQEEIKENTKNDKQMVQYIYKYTSYPDPILLMKSARNSCWSKDAEYGLYSIYQGGIFELKENDRIFVSVTNEHLIDMDHEASFFGAFLVGGGGSGGGSTSEETISTVQEKQQNISPLVRERGPQRVAAHITGTRGRSNTLSSPNSKNEKALGRKINSWESSRSGHSFLSNLHLRNGELVIHEKGFYYIYSQTYFRFQEEIKENTKNDKQMVQYIYKYTSYPDPILLMKSARNSCWSKDAEYGLYSIYQGGIFELKENDRIFVSVTNEHLIDMDHEASFFGAFLVG
B6: scTRAIL3-FAVGGAA (ligand)
chain: LDDYKDDDDKEFGGAAAHITGTRGRSNTLSSPNSKNEKALGRKINSWESSRSGHSFLSNLHLRNGELVIHEKGFYYIYSQTYFRFQEEIKENTKNDKQMVQYIYKYTSYPDPILLMKSARNSCWSKDAEYGLYSIYQGGIFELKENDRIFVSVTNEHLIDMDHEASFFGAFAVGGAAAHITGTRGRSNTLSSPNSKNEKALGRKINSWESSRSGHSFLSNLHLRNGELVIHEKGFYYIYSQTYFRFQEEIKENTKNDKQMVQYIYKYTSYPDPILLMKSARNSCWSKDAEYGLYSIYQGGIFELKENDRIFVSVTNEHLIDMDHEASFFGAFAVGGAAAHITGTRGRSNTLSSPNSKNEKALGRKINSWESSRSGHSFLSNLHLRNGELVIHEKGFYYIYSQTYFRFQEEIKENTKNDKQMVQYIYKYTSYPDPILLMKSARNSCWSKDAEYGLYSIYQGGIFELKENDRIFVSVTNEHLIDMDHEASFFGAFAVG
B7: scTRAIL3-FLVGGVA (ligand)
chain: B6 chain with A15V, A172L, A176V, A333L, A337V, A494L
B8: scTRAIL3-FLVGGAA (ligand)
chain: B6 chain with A172L, A333L, A494L
B9: scTRAIL3-FAVGGIA (protein)
chain: MDWTWRVFCLLAVAPGAHSLDDYKDDDDKEFGGAAAHITGTRGRSNTLSSPNSKNEKALGRKINSWESSRSGHSFLSNLHLRNGELVIHEKGFYYIYSQTYFRFQEEIKENTKNDKQMVQYIYKYTSYPDPILLMKSARNSCWSKDAEYGLYSIYQGGIFELKENDRIFVSVTNEHLIDMDHEASFFGAFLVGGAAAHITGTRGRSNTLSSPNSKNEKALGRKINSWESSRSGHSFLSNLHLRNGELVIHEKGFYYIYSQTYFRFQEEIKENTKNDKQMVQYIYKYTSYPDPILLMKSARNSCWSKDAEYGLYSIYQGGIFELKENDRIFVSVTNEHLIDMDHEASFFGAFLVGGAAAHITGTRGRSNTLSSPNSKNEKALGRKINSWESSRSGHSFLSNLHLRNGELVIHEKGFYYIYSQTYFRFQEEIKENTKNDKQMVQYIYKYTSYPDPILLMKSARNSCWSKDAEYGLYSIYQGGIFELKENDRIFVSVTNEHLIDMDHEASFFGAFLVG
B10: scTRAIL3-FAVSGAA (protein)
chain: B9 chain with L191A, G193S, L352A, G354S, L513A, G515S
B11: scTRAIL3-FIVGGIA (protein)
chain: B9 chain with L191A, L352A, L513A
B12: scTRAIL3-FLVSGIA (protein)
chain: B9 chain with A34I, L191A, A195I, L352A, A356I, L513A
B13: scTRAIL3-FIVSGIA (protein)
chain: B9 chain with A34I, L191I, A195I, L352I, A356I, L513I

Target: HT1080
Assay: flow cytometry; HT1080 cells

EC50 [nM]	Binder
1.9	B1
2.6	B2
4.3	B3
3	B4
0.6	B5

Target: Colo 205
Assay: flow cytometry; Colo205 cells

EC50 [nM]	Binder
4.1	B6
12.7	B7
4.2	B8

Target: TRAIL-R2-Fc (human, UniProt O14763 56-210)
Assay: ELISA

EC50 [nM]	Binder
8.82	B9
5.69	B10
4.82	B11
17.5	B12
6.7	B13
5.25	B6
